# B1: TMEL1020 (antibody, V domains shown)
# VH: QVHLVQSGAEVKKPGASVKVSCKASGYTFTNYFIHWVRQAPGQGPEWMGVINPSFGSTTYAQKLQGRVTMTRETSTSTVYMELSSLRSEDTAVYYCARESLDSASYSTIAHWGQGTLVTVSS
# VL: EIVLAQSPGTLYLSPGERATLSCRASQSVRGNYLAWYQQRPGQAPRLLIYGASSRATGIPDRFGGSGSGTDFTLTITRLLPEDFAVYYCHQYGSSPRTFGQGTKVEIKR
# notes: detected with anti-human IgG Fc
# B2: TMEL1027 (antibody, V domains shown)
# VH: QVQLVQSGAEVKKPGASVKVSCKASGYTFTVYYMHWVRQAPGQGLEWMGRINPNSGGTNYAQKFQGRVTMTRDTSISTAYMELSRLTSDDTAVYYCARVVVVGTDYGMDVWGQGTTVTVSS
# VL: VSSELTQDPAVSVALGQTVRITCQGDSLRSYYASWYQQRPGQAPVLVIYGKNNRPSGIPDRFSGSSSGNTASLTITGAQAEDEADYYCNSRDSSGNHVFGTGTKVTVLG
# notes: as for B1
# B3: TMEL1028 (antibody, V domains shown)
# VH: QVQLVQSGAEVKKPGASVKVSCKASGYTFTSYGISWVRQAPGQGLEWMGWISAYNGNTNYAQKLQGRVTMTTDTSTSTAYMELRSLTSDDTAVYYCARDQGLERANWFDPWGQGTLVTVSS
# VL: not shown
# notes: as for B1
# B4: TMEL1030 (antibody, V domains shown)
# VH: QVQLQESGPGLVKPSGTLSLTCAVSGGSISSSNCWSWVRQPPGKGLEWLGEICHSGSTSYNPSLKSRVTISVDKSKNQFSLKLRSVTAADTAVYYCARESPLTVVFDYWGQGTLVTVSS
# VL: DIQMTQSPSSLSASVGDRVTITCRASQGIRNDLGWFQQKPGKAPKRLIYAASNLPSGVSSRFSGSGSGTEFTLTISSLQPEDFATYYCLQHNNYPLTFGQGTKVEFKR
# notes: as for B1
# B5: TMEL1031 (antibody, V domains shown)
# VH: EVQLVESGGGLVQPGGSLRLSCAASGFTVSSNYMSWVRQAPGKGLEWVSVIYSGGSTYYADSVKGRFTISRDNSKNTLSLQMNSLRAEDTAVYYCARESSAAGYDYWGQGTLVTVSS
# VL: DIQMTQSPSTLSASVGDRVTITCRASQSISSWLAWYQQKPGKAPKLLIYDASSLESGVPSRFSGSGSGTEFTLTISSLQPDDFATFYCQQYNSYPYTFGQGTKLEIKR
# notes: as for B1
# B6: TMEL1032 (antibody, V domains shown)
# VH: QVQLVQSGAEVRKPGASVKVSCKASGYTFTTYYIHWVRQAPGQGLEWMGLINPNGGTTNYAQKFQGRLSMTTDTSTNTVYMELSSLRSEDTAVYYCARKLMSGIVSRGWFDPWGQGTLVTVSS
# VL: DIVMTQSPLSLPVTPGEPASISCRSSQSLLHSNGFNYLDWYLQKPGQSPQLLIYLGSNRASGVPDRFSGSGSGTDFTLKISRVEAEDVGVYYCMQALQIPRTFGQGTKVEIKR
# notes: as for B1
# B7: TMEL1033 (antibody, V domains shown)
# VH: PVQLQESGPGLVKPSETLSLTCTVSGGSVSSGSYYWSWIRQPPGKGLEWIGYIYYSGSTNYNPSLKSRVTISVDTSKNQFSLKLSSVTAADTAVYYCARDRGDYVTHWFDPWGQGTLVTVSS
# VL: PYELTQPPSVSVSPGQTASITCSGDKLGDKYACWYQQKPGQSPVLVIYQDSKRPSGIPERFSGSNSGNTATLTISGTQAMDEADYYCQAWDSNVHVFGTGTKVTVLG
# notes: as for B1
# B8: TBRE1032 (antibody, V domains shown)
# VH: EVQLVESGGGLVQPGGSLRLSCAASGFTFSSYDFHWVRQPTGKGLEWVSAIGTAGDTLYLDSVKGRFTISRENAKNSLYLQMNSLRAGDTAVYYCARVNWNSDTFDSWGQGTLVTVSS
# VL: VSSELTQDPAVSVALGQTVRITCQGDSLRRYYASWYQQKAGQAPILVIYGENNRPSGIPDRFSGSGSGNTASLTITGAQAEDEADYYCDSRDSSGNLVVFGGGTKLTVL
# notes: VH/VL only
# B9: TMEL1035 (antibody, V domains shown)
# VH: QVQLVESGGGVVQPGRSLRLSCAASGFTFSSYAMHWVRQAPGKGLEWVAVISYDGSNKYYADSVKGRFTISRDNSKNTLYLQMNSLRAEDTAVYYCASPIAVAAPFAYWGQGTLVTVSS
# VL: VSSELTQDPAVSVALGQTVRITCQGDSLRSYYASWYQQKPGQAPVLVIYGKNNRPSGIPDRFSGSSSGNTASLTITGAQAEDEADYYCNSRDSSGNLYVFGTGTKVTVLG
# notes: as for B1
# B10: TMEL1037 (antibody, V domains shown)
# VH: PLQLQESGPGLVKPSETLSLTCTVSGGSISSSSYYWGWIRQSPGKGLEWMGSIYYSGSTYYNPSLKSRVTISVDTSKNQFSLNLSSVTAADTAVYYCARHDYRNYFDYWGQGTLVTVSS
# VL: not shown
# notes: as for B1
# Legend:
# [1] = target: T1, anterior gradient 3, protein disulphide isomerase family member (human, UniProt Q8TD06 22-166)
# T1 construct: HuProt array protein, full-length recombinant from yeast; also called AGR3
# T1 sequence: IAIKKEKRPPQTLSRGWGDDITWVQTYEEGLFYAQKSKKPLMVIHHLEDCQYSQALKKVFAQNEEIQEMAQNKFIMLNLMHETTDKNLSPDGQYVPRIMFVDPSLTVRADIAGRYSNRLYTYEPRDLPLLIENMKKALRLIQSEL
# [2] = target: T2, microtubule associated scaffold protein 2, transcript variant 2 (human, UniProt Q5JR59 1040-1369)
# T2 construct: HuProt array protein, full-length recombinant from yeast; also called MTUS2
# T2 sequence: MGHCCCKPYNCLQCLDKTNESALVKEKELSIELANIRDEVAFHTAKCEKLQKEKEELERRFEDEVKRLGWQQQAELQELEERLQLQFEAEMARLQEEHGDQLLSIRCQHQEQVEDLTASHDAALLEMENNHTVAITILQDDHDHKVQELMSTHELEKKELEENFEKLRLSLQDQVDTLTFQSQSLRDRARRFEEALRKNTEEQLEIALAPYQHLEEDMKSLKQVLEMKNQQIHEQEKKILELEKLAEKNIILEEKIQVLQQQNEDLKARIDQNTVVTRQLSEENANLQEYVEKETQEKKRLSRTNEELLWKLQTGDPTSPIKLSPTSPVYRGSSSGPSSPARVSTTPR
# [3] = target: phosphodiesterase 5A, transcript variant 1 (human, UniProt O76074 1-875)
# [4] = target: T3, zinc finger protein 296 (human, UniProt Q8WUU4 1-475)
# T3 construct: HuProt array protein, full-length recombinant from yeast; also called ZNF296
# T3 sequence: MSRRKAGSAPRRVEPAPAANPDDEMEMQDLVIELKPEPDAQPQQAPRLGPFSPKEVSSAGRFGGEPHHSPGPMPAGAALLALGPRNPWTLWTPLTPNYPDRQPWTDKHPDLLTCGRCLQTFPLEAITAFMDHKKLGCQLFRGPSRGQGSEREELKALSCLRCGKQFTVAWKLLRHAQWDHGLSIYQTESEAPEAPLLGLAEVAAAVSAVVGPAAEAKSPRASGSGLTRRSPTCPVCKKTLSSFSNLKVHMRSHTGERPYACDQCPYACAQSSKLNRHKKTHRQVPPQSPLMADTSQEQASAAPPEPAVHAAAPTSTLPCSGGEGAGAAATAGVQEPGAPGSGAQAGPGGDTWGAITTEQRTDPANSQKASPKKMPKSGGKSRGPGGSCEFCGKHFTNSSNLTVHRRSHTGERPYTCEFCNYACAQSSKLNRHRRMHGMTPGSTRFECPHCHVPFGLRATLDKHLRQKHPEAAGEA
# [5] = target: T4, Bcl2 like 1 (human, UniProt Q07817 1-233)
# T4 construct: HuProt array protein, full-length recombinant from yeast; also called BCL2L1
# T4 sequence (Q07817 whole entry): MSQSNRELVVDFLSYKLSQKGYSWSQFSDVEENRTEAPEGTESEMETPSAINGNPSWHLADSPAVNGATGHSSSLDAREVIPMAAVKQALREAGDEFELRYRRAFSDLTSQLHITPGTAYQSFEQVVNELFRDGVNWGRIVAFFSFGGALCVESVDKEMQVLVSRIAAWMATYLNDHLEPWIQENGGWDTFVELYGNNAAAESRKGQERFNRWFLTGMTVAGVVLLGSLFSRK
# [6] = target: T5, arginine and glutamate rich 1 (human, UniProt Q9NWB6 1-273)
# T5 construct: HuProt array protein, full-length recombinant from yeast; also called ARGLU1
# T5 sequence: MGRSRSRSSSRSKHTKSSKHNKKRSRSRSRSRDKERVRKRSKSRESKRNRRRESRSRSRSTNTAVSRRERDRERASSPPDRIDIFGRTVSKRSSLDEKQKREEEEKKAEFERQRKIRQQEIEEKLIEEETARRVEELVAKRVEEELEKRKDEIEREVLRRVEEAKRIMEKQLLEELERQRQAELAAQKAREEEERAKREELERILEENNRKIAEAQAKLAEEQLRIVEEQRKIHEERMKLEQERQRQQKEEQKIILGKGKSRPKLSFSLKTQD
# [7] = target: T6, SAS-6 centriolar assembly protein, transcript variant 2 (human, UniProt Q6UVJ0 168-657)
# T6 construct: HuProt array protein, full-length recombinant from yeast; also called SASS6
# T6 sequence: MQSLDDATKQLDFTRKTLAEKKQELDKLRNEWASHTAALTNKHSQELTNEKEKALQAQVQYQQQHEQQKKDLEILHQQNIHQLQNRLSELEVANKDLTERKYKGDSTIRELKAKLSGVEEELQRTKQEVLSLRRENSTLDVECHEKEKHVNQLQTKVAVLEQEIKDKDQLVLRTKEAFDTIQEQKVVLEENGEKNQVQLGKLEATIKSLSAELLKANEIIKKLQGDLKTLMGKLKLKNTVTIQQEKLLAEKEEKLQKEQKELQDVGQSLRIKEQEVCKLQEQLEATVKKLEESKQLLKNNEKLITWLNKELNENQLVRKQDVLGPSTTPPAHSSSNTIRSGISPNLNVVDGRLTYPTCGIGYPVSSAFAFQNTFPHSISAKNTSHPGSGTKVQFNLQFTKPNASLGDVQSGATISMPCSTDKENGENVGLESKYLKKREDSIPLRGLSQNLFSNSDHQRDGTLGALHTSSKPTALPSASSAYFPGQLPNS
# [8] = target: T7, Src like adaptor, transcript variant 1 (human, UniProt Q13239 2-276)
# T7 construct: HuProt array protein, full-length recombinant from yeast; also called SLA
# T7 sequence: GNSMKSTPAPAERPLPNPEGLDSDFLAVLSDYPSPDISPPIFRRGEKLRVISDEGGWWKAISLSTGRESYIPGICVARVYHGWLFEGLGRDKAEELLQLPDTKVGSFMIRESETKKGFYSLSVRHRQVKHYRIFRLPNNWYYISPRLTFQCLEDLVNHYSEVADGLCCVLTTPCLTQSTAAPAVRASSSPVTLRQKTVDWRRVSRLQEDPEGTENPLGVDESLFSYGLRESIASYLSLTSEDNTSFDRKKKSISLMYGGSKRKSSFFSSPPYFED
# [9] = target: T8, proteasome 26S subunit, non-ATPase 4, transcript variant 2 (human, UniProt P55036 1-377)
# T8 construct: HuProt array protein, full-length recombinant from yeast; also called PSMD4
# T8 sequence (P55036 whole entry, change not shown): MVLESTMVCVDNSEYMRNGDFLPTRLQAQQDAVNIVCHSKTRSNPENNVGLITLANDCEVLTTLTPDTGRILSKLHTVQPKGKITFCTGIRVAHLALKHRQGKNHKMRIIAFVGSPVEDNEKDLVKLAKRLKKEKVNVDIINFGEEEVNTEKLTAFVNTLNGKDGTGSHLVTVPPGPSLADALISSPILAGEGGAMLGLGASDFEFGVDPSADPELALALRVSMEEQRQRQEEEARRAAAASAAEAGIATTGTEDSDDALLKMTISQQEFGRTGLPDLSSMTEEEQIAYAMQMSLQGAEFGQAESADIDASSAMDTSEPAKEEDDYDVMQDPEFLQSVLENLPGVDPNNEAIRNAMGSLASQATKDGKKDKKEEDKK
# [10] = target: T9, zinc finger protein 431, transcript variant 2 (human, UniProt Q8TF32 1-576)
# T9 construct: HuProt array protein, full-length recombinant from yeast; also called ZNF431
# T9 sequence (Q8TF32 other isoform, or with tags, fused parts or gaps mutant limits assumed): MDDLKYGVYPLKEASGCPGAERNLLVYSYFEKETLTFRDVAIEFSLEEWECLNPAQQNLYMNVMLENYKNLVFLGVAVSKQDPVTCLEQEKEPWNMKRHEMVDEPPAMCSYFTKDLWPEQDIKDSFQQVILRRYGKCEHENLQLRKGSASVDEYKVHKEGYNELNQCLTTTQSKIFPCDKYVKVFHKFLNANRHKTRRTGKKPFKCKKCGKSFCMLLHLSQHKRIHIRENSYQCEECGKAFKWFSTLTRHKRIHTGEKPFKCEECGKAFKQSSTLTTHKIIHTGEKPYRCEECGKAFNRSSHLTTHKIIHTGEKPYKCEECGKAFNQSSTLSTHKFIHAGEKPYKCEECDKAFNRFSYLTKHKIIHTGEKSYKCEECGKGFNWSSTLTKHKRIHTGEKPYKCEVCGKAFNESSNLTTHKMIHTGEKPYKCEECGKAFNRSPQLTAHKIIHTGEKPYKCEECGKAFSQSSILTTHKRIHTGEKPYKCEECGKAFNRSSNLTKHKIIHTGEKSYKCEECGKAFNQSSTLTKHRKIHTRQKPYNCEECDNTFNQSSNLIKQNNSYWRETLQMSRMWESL
# [11] = target: T10, Zinc finger protein 699 (human, UniProt Q32M78 1-642)
# T10 construct: HuProt array protein, full-length recombinant from yeast; also called ZNF699
# T10 sequence (Q32M78 whole entry): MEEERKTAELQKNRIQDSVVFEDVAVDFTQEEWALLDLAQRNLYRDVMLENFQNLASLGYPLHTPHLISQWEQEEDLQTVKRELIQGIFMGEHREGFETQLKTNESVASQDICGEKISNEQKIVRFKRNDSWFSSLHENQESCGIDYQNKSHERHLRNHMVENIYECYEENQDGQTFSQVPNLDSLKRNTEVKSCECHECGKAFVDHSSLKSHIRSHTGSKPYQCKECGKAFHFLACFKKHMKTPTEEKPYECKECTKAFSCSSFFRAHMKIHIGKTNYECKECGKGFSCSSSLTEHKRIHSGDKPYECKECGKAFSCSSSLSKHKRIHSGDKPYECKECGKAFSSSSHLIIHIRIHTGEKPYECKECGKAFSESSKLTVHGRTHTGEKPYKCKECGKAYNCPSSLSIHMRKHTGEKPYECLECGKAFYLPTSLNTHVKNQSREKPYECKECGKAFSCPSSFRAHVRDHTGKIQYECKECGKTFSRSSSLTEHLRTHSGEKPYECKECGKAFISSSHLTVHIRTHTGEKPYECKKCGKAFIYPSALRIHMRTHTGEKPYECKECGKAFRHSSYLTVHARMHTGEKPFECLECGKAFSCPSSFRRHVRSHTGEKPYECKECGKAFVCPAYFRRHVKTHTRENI
# [12] = target: T11, nudix hydrolase 21 (human, UniProt O43809 2-227)
# T11 construct: HuProt array protein, full-length recombinant from yeast; also called NUDT21
# T11 sequence (O43809 2-227 limits assumed): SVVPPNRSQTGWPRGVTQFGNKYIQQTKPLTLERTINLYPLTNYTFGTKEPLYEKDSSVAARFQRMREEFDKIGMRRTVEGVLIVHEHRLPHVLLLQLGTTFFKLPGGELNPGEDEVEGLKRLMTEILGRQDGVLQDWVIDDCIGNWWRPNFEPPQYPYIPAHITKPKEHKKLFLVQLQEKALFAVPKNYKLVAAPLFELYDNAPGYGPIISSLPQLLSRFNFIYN
# [13] = target: T12, X-linked inhibitor of apoptosis, transcript variant 2 (human, UniProt P98170 1-497); assay: protein array
# T12 construct: on protein array; also called XIAP
# T12 sequence (P98170 whole entry, change not shown): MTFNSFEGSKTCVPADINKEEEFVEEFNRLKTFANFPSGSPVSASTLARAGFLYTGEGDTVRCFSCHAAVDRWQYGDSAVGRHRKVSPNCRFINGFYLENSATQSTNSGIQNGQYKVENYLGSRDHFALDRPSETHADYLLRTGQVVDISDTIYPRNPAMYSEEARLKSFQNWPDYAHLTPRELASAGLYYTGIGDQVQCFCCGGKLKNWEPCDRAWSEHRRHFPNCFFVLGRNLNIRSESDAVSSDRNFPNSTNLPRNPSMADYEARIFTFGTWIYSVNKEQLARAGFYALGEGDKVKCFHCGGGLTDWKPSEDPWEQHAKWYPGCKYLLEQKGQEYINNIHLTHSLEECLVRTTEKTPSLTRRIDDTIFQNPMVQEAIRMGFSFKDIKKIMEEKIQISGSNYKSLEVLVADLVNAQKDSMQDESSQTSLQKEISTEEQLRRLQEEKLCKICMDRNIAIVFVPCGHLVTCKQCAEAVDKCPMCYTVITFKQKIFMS
# [14] = target: T13, keratin associated protein 12-3 (human, UniProt P60328 1-96)
# T13 construct: HuProt array protein, full-length recombinant from yeast; also called KRTAP12-3
# T13 sequence: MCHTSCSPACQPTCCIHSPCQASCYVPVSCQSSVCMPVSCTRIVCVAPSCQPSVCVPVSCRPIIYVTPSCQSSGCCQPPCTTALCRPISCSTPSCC
# [15] = target: T14, PAGE family member 2 (human, UniProt Q7Z2X7 1-111)
# T14 construct: HuProt array protein, full-length recombinant from yeast; also called PAGE2
# T14 sequence: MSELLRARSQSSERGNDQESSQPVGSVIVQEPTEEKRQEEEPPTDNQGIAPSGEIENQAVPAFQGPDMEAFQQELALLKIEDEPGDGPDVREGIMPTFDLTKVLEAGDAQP
# [16] = target: T15, enolase 2 (human, UniProt P09104 2-434)
# T15 construct: HuProt array protein, full-length recombinant from yeast; also called ENO2
# T15 sequence (P09104 2-434 limits assumed): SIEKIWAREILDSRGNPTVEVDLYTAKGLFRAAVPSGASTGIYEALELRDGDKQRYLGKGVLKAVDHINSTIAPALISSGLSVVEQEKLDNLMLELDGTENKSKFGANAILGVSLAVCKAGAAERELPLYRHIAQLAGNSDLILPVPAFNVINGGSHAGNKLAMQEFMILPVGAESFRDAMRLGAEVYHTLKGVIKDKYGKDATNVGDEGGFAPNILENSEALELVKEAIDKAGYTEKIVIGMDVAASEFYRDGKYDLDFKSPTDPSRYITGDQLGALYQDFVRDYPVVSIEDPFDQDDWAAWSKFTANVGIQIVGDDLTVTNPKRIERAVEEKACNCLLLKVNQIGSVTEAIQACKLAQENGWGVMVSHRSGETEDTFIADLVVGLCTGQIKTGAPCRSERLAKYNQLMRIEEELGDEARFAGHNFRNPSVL
binder,measurement,setting,value
B1,binding result,[1],binds
B2,binding result,[2],binds
B3,binding result,[3],binds
same,binding result,[4],binds
B4,binding result,[5],binds
B5,binding result,[6],binds
same,binding result,[7],binds
B6,binding result,[8],binds
same,binding result,[9],binds
B7,binding result,[10],binds
same,binding result,[11],binds
same,binding result,[12],binds
B8,binding result,[13],binds
B9,binding result,[14],binds
same,binding result,[15],binds
B10,binding result,[16],binds

# Source: patent US20220204643A1 (published 2022)
